Positions of bridges follow the written chain, without caps; N, C: chain ends. Non-standard residues stand in square brackets, D forms with d. R8 = C=CCCCCCC[C@@](C)(N)C(=O)O; S5 = C=CCCC[C@](C)(N)C(=O)O; Abu = CC[C@H](N)C(=O)O
What was measured:
Test in all cases: Ki; method not stated; unit not printed (nM per Table 6)
BCL-2 = target: T1, BCL-2 (UniProt P10415 1-217, limits assumed)
T1 construct: Target of the Ki columns

MCL-1 = target: T2, MCL-1 (UniProt Q07820 172-327, limits assumed)
T2 construct: Target of the Ki columns; also called Myeloid cell leukemia 1

BCL-XL = target: T3, BCL-XL (UniProt Q07817 1-209)
T3 construct: Target of the Ki columns
T3 sequence (Q07817 1-209): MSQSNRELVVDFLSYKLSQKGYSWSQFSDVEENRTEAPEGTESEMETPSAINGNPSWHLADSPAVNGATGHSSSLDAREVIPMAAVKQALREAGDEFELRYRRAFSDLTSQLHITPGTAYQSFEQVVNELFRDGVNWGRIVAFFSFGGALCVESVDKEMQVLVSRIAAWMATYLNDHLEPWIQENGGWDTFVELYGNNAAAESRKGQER

T1 sequence (P10415 1-217 limits assumed): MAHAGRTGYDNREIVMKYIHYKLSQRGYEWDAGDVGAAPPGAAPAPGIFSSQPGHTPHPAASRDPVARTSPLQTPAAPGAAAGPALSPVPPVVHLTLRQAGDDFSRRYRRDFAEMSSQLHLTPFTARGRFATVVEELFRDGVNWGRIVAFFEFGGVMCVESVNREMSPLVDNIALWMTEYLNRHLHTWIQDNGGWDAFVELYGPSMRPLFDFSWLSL
T2 sequence (Q07820 172-327 limits assumed): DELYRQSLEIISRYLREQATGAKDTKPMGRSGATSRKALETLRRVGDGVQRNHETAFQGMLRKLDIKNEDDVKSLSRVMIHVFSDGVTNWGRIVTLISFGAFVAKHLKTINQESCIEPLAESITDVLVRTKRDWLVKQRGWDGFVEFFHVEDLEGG

B1: SEQ ID NO: 1739 (peptide)
peptide: Ac-IWIAAALR[R8]IVDAFN[S5]YYA-NH2
modifications: staple 9-16
SMILES: CC[C@H](C)[C@H](NC(C)=O)C(=O)N[C@@H](Cc1c[nH]c2ccccc12)C(=O)N[C@H](C(=O)N[C@@H](C)C(=O)N[C@@H](C)C(=O)N[C@@H](C)C(=O)N[C@@H](CC(C)C)C(=O)N[C@@H](CCCNC(=N)N)C(=O)N[C@]1(C)CCCCCCC=CCCC[C@@](C)(C(=O)N[C@@H](Cc2ccc(O)cc2)C(=O)N[C@@H](Cc2ccc(O)cc2)C(=O)N[C@@H](C)C(N)=O)NC(=O)[C@H](CC(N)=O)NC(=O)[C@H](Cc2ccccc2)NC(=O)[C@H](C)NC(=O)[C@H](CC(=O)O)NC(=O)[C@H](C(C)C)NC(=O)[C@H]([C@@H](C)CC)NC1=O)[C@@H](C)CC
BCL-2
  Ki: 120 nM
MCL-1
  Ki: 104 nM
BCL-XL
  Ki: 140 nM

B2: SEQ ID NO: 1738 (peptide)
peptide: Ac-IWIAAALR[R8]I[Abu]DAFN[S5]YYA-NH2
modifications: staple 9-16
SMILES: CC[C@@H]1NC(=O)[C@H]([C@@H](C)CC)NC(=O)[C@](C)(NC(=O)[C@H](CCCNC(=N)N)NC(=O)[C@H](CC(C)C)NC(=O)[C@H](C)NC(=O)[C@H](C)NC(=O)[C@H](C)NC(=O)[C@@H](NC(=O)[C@H](Cc2c[nH]c3ccccc23)NC(=O)[C@@H](NC(C)=O)[C@@H](C)CC)[C@@H](C)CC)CCCCCCC=CCCC[C@@](C)(C(=O)N[C@@H](Cc2ccc(O)cc2)C(=O)N[C@@H](Cc2ccc(O)cc2)C(=O)N[C@@H](C)C(N)=O)NC(=O)[C@H](CC(N)=O)NC(=O)[C@H](Cc2ccccc2)NC(=O)[C@H](C)NC(=O)[C@H](CC(=O)O)NC1=O
BCL-2
  Ki: 131 nM
MCL-1
  Ki: 106 nM
BCL-XL
  Ki: 112 nM

B3: SEQ ID NO: 1740 (peptide)
peptide: Ac-IWIAAALR[R8]IGEAFN[S5]YYA-NH2
modifications: staple 9-16
SMILES: CC[C@H](C)[C@H](NC(C)=O)C(=O)N[C@@H](Cc1c[nH]c2ccccc12)C(=O)N[C@H](C(=O)N[C@@H](C)C(=O)N[C@@H](C)C(=O)N[C@@H](C)C(=O)N[C@@H](CC(C)C)C(=O)N[C@@H](CCCNC(=N)N)C(=O)N[C@]1(C)CCCCCCC=CCCC[C@@](C)(C(=O)N[C@@H](Cc2ccc(O)cc2)C(=O)N[C@@H](Cc2ccc(O)cc2)C(=O)N[C@@H](C)C(N)=O)NC(=O)[C@H](CC(N)=O)NC(=O)[C@H](Cc2ccccc2)NC(=O)[C@H](C)NC(=O)[C@H](CCC(=O)O)NC(=O)CNC(=O)[C@H]([C@@H](C)CC)NC1=O)[C@@H](C)CC
BCL-2
  Ki: 142 nM
MCL-1
  Ki: 63.6 nM
BCL-XL
  Ki: 135 nM

B4: SEQ ID NO: 1741 (peptide)
peptide: Ac-IWIAAALR[R8]IGDAGN[S5]YYA-NH2
modifications: staple 9-16
SMILES: CC[C@H](C)[C@H](NC(C)=O)C(=O)N[C@@H](Cc1c[nH]c2ccccc12)C(=O)N[C@H](C(=O)N[C@@H](C)C(=O)N[C@@H](C)C(=O)N[C@@H](C)C(=O)N[C@@H](CC(C)C)C(=O)N[C@@H](CCCNC(=N)N)C(=O)N[C@]1(C)CCCCCCC=CCCC[C@@](C)(C(=O)N[C@@H](Cc2ccc(O)cc2)C(=O)N[C@@H](Cc2ccc(O)cc2)C(=O)N[C@@H](C)C(N)=O)NC(=O)[C@H](CC(N)=O)NC(=O)CNC(=O)[C@H](C)NC(=O)[C@H](CC(=O)O)NC(=O)CNC(=O)[C@H]([C@@H](C)CC)NC1=O)[C@@H](C)CC
BCL-2
  Ki: 145 nM
MCL-1
  Ki: 29.7 nM
BCL-XL
  Ki: 171 nM

B5: SEQ ID NO: 1737 (peptide)
peptide: Ac-IWIAAALK[R8]IGDAFN[S5]YYA-NH2
modifications: staple 9-16
SMILES: CC[C@H](C)[C@H](NC(C)=O)C(=O)N[C@@H](Cc1c[nH]c2ccccc12)C(=O)N[C@H](C(=O)N[C@@H](C)C(=O)N[C@@H](C)C(=O)N[C@@H](C)C(=O)N[C@@H](CC(C)C)C(=O)N[C@@H](CCCCN)C(=O)N[C@]1(C)CCCCCCC=CCCC[C@@](C)(C(=O)N[C@@H](Cc2ccc(O)cc2)C(=O)N[C@@H](Cc2ccc(O)cc2)C(=O)N[C@@H](C)C(N)=O)NC(=O)[C@H](CC(N)=O)NC(=O)[C@H](Cc2ccccc2)NC(=O)[C@H](C)NC(=O)[C@H](CC(=O)O)NC(=O)CNC(=O)[C@H]([C@@H](C)CC)NC1=O)[C@@H](C)CC
BCL-2
  Ki: 25.6 nM
MCL-1
  Ki: 23.2 nM
BCL-XL
  Ki: 11.7 nM
